Laboratory results: patent US10260060B2, “Genetically modified phenylpyruvate decarboxylase, processes to prepare, and uses thereof” (Dow Global Technologies LLC, priority 2014, dated 2019)

Experiments:
Format in all cases: biochemical, Azospirillum brasilense
[1] = substrate: CCCCCCCC(=O)C(=O)O; experiment: HTP AbPPDC coupled enzyme assay (ADH6/NADPH), 2-ketoacid decarboxylation kinetics, F532V; details: other: pH 6.8, 30° C, 2-ketoacid 0 to 4 mM, Hill equation, mean ± standard error
Method: (§1) The evaluation of the AbPPDC variants is performed in two steps using the high-throughput enzyme assay described hereinbelow. Initially, all the variants are tested for activity against a single high concentration (2 mM) of 2-KH and 2-KN (as shown in Table 1). Following the initial evaluation, detailed kinetic analysis is performed on a select number of variants to determine the maximal rate (kcat), substrate concentration yielding half maximal rate (K0.5, equivalent of KM for enzymes following Michaelis-Menten kinetics), and the catalytic efficiency of the enzyme (kcat/K0.5) against 2-KO and 2-KN (as shown in Table 2). AbPPDC variants, having higher specificity (higher kcat/K0.5) for 2-KN, will be efficient in producing octanal and chemicals derived from it inside the cells.
(§2) To evaluate the substrate specificity of the wild type AbPPDC and its variants listed in Table 1, genes of all the proteins are expressed in E. coli cells separately and the protein products are isolated from the cells. The gene sequence of the Azospirillum brasilense phenylpyruvate decarboxylase (GenBank: Accession no. L26240) is downloaded from the NCBI database. Codons of 13 additional amino acids that include six (6) histidines (his) are added upstream of the Met-1 codon of the AbPPDC gene sequence. Such a modification allows expression of a Histidine-tagged AbPPDC having 13 additional amino acids on the N-terminus. The additional amino acids are attached as an aid for purifying the protein in a single step using Ni-NTA chromatography. The entire AbPPDC sequence with 13 additional amino acids (SEQ ID 2) is chemically synthesized and then cloned into the pRSFDuet-1 vector (EMD Biosciences) downstream of the T7 polymerase promoter by Synthetic Genomics, Inc. (San Diego, Calif.). The final vector is sequenced by Synthetic Genomics, Inc. before shipping.
(§3) Genes of the AbPPDC variants listed in Table 1 are either chemically synthesized or generated using New England Biolab's Q5 Site-directed Mutagenesis Kit (cat. no. E0554S) and cloned into the pRSFDuet-1 vector. The pRSFDuet-1 vector containing AbPPDC or the AbPPDC variant gene is transformed into E. coli, AbPPDC or its variant, then expressed and eventually purified, as described below.
(§4) A high-throughput AbPPDC coupled enzyme assay is developed for evaluating the substrate specificity of AbPPDC variants. The assay involves reducing the aldehyde produced from AbPPDC mediated 2-ketoacid decarboxylation, using an alcohol dehydrogenase (ADH6, GenBank: Accession No. NP 014051.3). The initial velocities of the AbPPDC catalyzed reactions are determined from the rates of oxidation of reduced nicotinamide adenine dinucleotide phosphate (NADPH) occurring during the ADH6 catalyzed reduction of aldehyde.
(§5) The HTP screening assay involves incubating 2 mM 2-KH or 2 mM 2-KN with 0.5 mM thiamine diphosphate, 0.35 mM NADPH, 4.7 micrograms (μg) of yeast ADH6 (GenBank: Accession No. NP 014051.3) and 0.3 milligrams per milliliter (mg/mL) bovine serum albumin (BSA) in AbPPDC assay buffer (50 mM 3-(N-morpholino)propanesulfonic acid, pH 6.8, containing 2.5 mM magnesium chloride (MgCl2)) at 30° C. The reaction is started by addition at 30° C. of working enzyme stock containing from 0.5 μg to 3.5 μg of AbPPDC variant diluted in AbPPDC assay buffer containing 1 mg/mL BSA. The plate containing the 200 μL of reaction mixture is centrifuged at 2500×g for 15 sec and the absorbance change of the reaction mixture followed spectrophotometrically at 340 nm on a BioTek™ plate reader, pre-equilibrated at 30° C. Initial velocity of the enzyme reaction is calculated using the rate of NADPH consumption at 340 nm and the extinction coefficient of NADPH (6.22 mM^−1 cm^−1). The activity of all the variants is normalized with the amount of enzyme present in the reaction mixture and expressed as nanomoles per minute per milligram (nmol·min^−1·mg^−1). […]

[2] = substrate: CCCCCCC(=O)C(=O)O; experiment: as above; details: other: pH 6.8, 30° C, 2-ketoacid 0 to 4 mM, Hill equation, mean ± standard error
Method: as §1, §2, §3, §4, §5

[3] = substrate: CCCCCCCC(=O)C(=O)O; experiment: HTP AbPPDC coupled enzyme assay (ADH6/NADPH), 2-ketoacid decarboxylation kinetics, Q536G; details: other: pH 6.8, 30° C, 2-ketoacid 0 to 4 mM, Hill equation, mean ± standard error
Method: as §1, §2, §3, §4, §5

[4] = substrate: CCCCCCC(=O)C(=O)O; experiment: as above; details: other: pH 6.8, 30° C, 2-ketoacid 0 to 4 mM, Hill equation, mean ± standard error
Method: as §1, §2, §3, §4, §5

[5] = substrate: CCCCCCCC(=O)C(=O)O; experiment: HTP AbPPDC coupled enzyme assay (ADH6/NADPH), 2-ketoacid decarboxylation kinetics, Q536L; details: other: pH 6.8, 30° C, 2-ketoacid 0 to 4 mM, Michaelis-Menten equation, mean ± standard error
Method: as §1, §2, §3, §4, §5

[6] = substrate: CCCCCCC(=O)C(=O)O; experiment: as above; details: other: pH 6.8, 30° C, 2-ketoacid 0 to 4 mM, Michaelis-Menten equation, mean ± standard error
Method: as §1, §2, §3, §4, §5

[7] = substrate: CCCCCCCC(=O)C(=O)O; experiment: HTP AbPPDC coupled enzyme assay (ADH6/NADPH), 2-ketoacid decarboxylation kinetics, Q536A; details: other: pH 6.8, 30° C, 2-ketoacid 0 to 4 mM, Hill equation, mean ± standard error
Method: as §1, §2, §3, §4, §5

[8] = substrate: CCCCCCC(=O)C(=O)O; experiment: as above; details: other: pH 6.8, 30° C, 2-ketoacid 0 to 4 mM, Hill equation, mean ± standard error
Method: as §1, §2, §3, §4, §5

[9] = substrate: CCCCCCCC(=O)C(=O)O; experiment: HTP AbPPDC coupled enzyme assay (ADH6/NADPH), 2-ketoacid decarboxylation kinetics, F532L; details: other: pH 6.8, 30° C, 2-ketoacid 0 to 4 mM, Hill equation, mean ± standard error
Method: as §1, §2, §3, §4, §5

[10] = substrate: CCCCCCC(=O)C(=O)O; experiment: as above; details: other: pH 6.8, 30° C, 2-ketoacid 0 to 4 mM, Hill equation, mean ± standard error
Method: as §1, §2, §3, §4, §5

B1: Azospirillum brasilense phenylpyruvate decarboxylase (AbPPDC) variant F532V, SEQ ID 28 (Azospirillum brasilense; F532V) (protein)
chain: MKLAEALLRALKDRGAQAMFGIPGDFALPFFKVAEETQILPLHTLSHEPAVGFAADAAARYSSTLGVAAVTYGAGAFNMVNAVAGAYAEKSPVVVISGAPGTTEGNAGLLLHHQGRTLDTQFQVFKEITVAQARLDDPAKAPAEIARVLGAARALSRPVYLEIPRNMVNAEVEPVGDDPAWPVDRDALAACADEVLAAMRSATSPVLMVCVEVRRYGLEAKVAELAQRLGVPVVTTFMGRGLLADAPTPPLGTYIGVAGDAEITRLVEESDGLFLLGAILSDTNFAVSQRKIDLRKTIHAFDRAVTLGYHTYADIPLAGLVDALLEGLPPSDRTTRGKEPHAYPTGLQADGEPIAPMDIARAVNDRVRAGQEPLLIAADMGDCLFTAMDMIDAGLMAPGYYAGMGFGVPAGIGAQCVSGGKRILTVVGDGAFQMTGWELGNCRRLGIDPIVILFNNASWEMLRTFQPESAFNDLDDWRFADMAAGMGGDGVRVRTRAELKAALDKAFATRGRFQLIEAMIPRGVLSDTLARVVQGQKRLHAAPRE
notes: made in house; host or cells: E. coli BL21(DE3)
K0.5 [1]: 0.89 ± 0.15 mM
kcat [1]: 0.383 ± 0.033 s⁻¹
kcat/Km [1]: 450 ± 83 M⁻¹ s⁻¹
K0.5 [2]: 2.0 ± 0.1 mM
kcat [2]: 0.163 ± 0.0033 s⁻¹
kcat/Km [2]: 80 ± 3.3 M⁻¹ s⁻¹

B2: Azospirillum brasilense phenylpyruvate decarboxylase (AbPPDC) variant Q536G, SEQ ID 32 (Azospirillum brasilense; Q536G) (protein)
chain: MKLAEALLRALKDRGAQAMFGIPGDFALPFFKVAEETQILPLHTLSHEPAVGFAADAAARYSSTLGVAAVTYGAGAFNMVNAVAGAYAEKSPVVVISGAPGTTEGNAGLLLHHQGRTLDTQFQVFKEITVAQARLDDPAKAPAEIARVLGAARALSRPVYLEIPRNMVNAEVEPVGDDPAWPVDRDALAACADEVLAAMRSATSPVLMVCVEVRRYGLEAKVAELAQRLGVPVVTTFMGRGLLADAPTPPLGTYIGVAGDAEITRLVEESDGLFLLGAILSDTNFAVSQRKIDLRKTIHAFDRAVTLGYHTYADIPLAGLVDALLEGLPPSDRTTRGKEPHAYPTGLQADGEPIAPMDIARAVNDRVRAGQEPLLIAADMGDCLFTAMDMIDAGLMAPGYYAGMGFGVPAGIGAQCVSGGKRILTVVGDGAFQMTGWELGNCRRLGIDPIVILFNNASWEMLRTFQPESAFNDLDDWRFADMAAGMGGDGVRVRTRAELKAALDKAFATRGRFQLIEAMIPRGVLSDTLARFVQGGKRLHAAPRE
notes: as for B1
K0.5 [3]: 0.76 ± 0.02 mM
kcat [3]: 0.35 ± 0 s⁻¹
kcat/Km [3]: 467 ± 17 M⁻¹ s⁻¹
K0.5 [4]: 1.9 ± 0.2 mM
kcat [4]: 0.183 ± 0.013 s⁻¹
kcat/Km [4]: 96.7 ± 10 M⁻¹ s⁻¹

B3: Azospirillum brasilense phenylpyruvate decarboxylase (AbPPDC) variant Q536L, SEQ ID 36 (Azospirillum brasilense; Q536L) (protein)
chain: MKLAEALLRALKDRGAQAMFGIPGDFALPFFKVAEETQILPLHTLSHEPAVGFAADAAARYSSTLGVAAVTYGAGAFNMVNAVAGAYAEKSPVVVISGAPGTTEGNAGLLLHHQGRTLDTQFQVFKEITVAQARLDDPAKAPAEIARVLGAARALSRPVYLEIPRNMVNAEVEPVGDDPAWPVDRDALAACADEVLAAMRSATSPVLMVCVEVRRYGLEAKVAELAQRLGVPVVTTFMGRGLLADAPTPPLGTYIGVAGDAEITRLVEESDGLFLLGAILSDTNFAVSQRKIDLRKTIHAFDRAVTLGYHTYADIPLAGLVDALLEGLPPSDRTTRGKEPHAYPTGLQADGEPIAPMDIARAVNDRVRAGQEPLLIAADMGDCLFTAMDMIDAGLMAPGYYAGMGFGVPAGIGAQCVSGGKRILTVVGDGAFQMTGWELGNCRRLGIDPIVILFNNASWEMLRTFQPESAFNDLDDWRFADMAAGMGGDGVRVRTRAELKAALDKAFATRGRFQLIEAMIPRGVLSDTLARFVQGLKRLHAAPRE
notes: as for B1
K0.5 [5]: 1.51 ± 0.26 mM
kcat [5]: 1.38 ± 0.1 s⁻¹
kcat/Km [5]: 933 ± 183 M⁻¹ s⁻¹
K0.5 [6]: 1.34 ± 0.23 mM
kcat [6]: 0.45 ± 0.0283 s⁻¹
kcat/Km [6]: 350 ± 67 M⁻¹ s⁻¹

B4: Azospirillum brasilense phenylpyruvate decarboxylase (AbPPDC) variant Q536A, SEQ ID 34 (Azospirillum brasilense; Q536A) (protein)
chain: MKLAEALLRALKDRGAQAMFGIPGDFALPFFKVAEETQILPLHTLSHEPAVGFAADAAARYSSTLGVAAVTYGAGAFNMVNAVAGAYAEKSPVVVISGAPGTTEGNAGLLLHHQGRTLDTQFQVFKEITVAQARLDDPAKAPAEIARVLGAARALSRPVYLEIPRNMVNAEVEPVGDDPAWPVDRDALAACADEVLAAMRSATSPVLMVCVEVRRYGLEAKVAELAQRLGVPVVTTFMGRGLLADAPTPPLGTYIGVAGDAEITRLVEESDGLFLLGAILSDTNFAVSQRKIDLRKTIHAFDRAVTLGYHTYADIPLAGLVDALLEGLPPSDRTTRGKEPHAYPTGLQADGEPIAPMDIARAVNDRVRAGQEPLLIAADMGDCLFTAMDMIDAGLMAPGYYAGMGFGVPAGIGAQCVSGGKRILTVVGDGAFQMTGWELGNCRRLGIDPIVILFNNASWEMLRTFQPESAFNDLDDWRFADMAAGMGGDGVRVRTRAELKAALDKAFATRGRFQLIEAMIPRGVLSDTLARFVQGAKRLHAAPRE
notes: as for B1
K0.5 [7]: 0.52 ± 0.03 mM
kcat [7]: 0.5 ± 0.017 s⁻¹
kcat/Km [7]: 967 ± 67 M⁻¹ s⁻¹
K0.5 [8]: 0.72 ± 0.02 mM
kcat [8]: 0.333 ± 0.0033 s⁻¹
kcat/Km [8]: 450 ± 17 M⁻¹ s⁻¹

B5: Azospirillum brasilense phenylpyruvate decarboxylase (AbPPDC) variant F532L, SEQ ID 30 (Azospirillum brasilense; F532L) (protein)
chain: MKLAEALLRALKDRGAQAMFGIPGDFALPFFKVAEETQILPLHTLSHEPAVGFAADAAARYSSTLGVAAVTYGAGAFNMVNAVAGAYAEKSPVVVISGAPGTTEGNAGLLLHHQGRTLDTQFQVFKEITVAQARLDDPAKAPAEIARVLGAARALSRPVYLEIPRNMVNAEVEPVGDDPAWPVDRDALAACADEVLAAMRSATSPVLMVCVEVRRYGLEAKVAELAQRLGVPVVTTFMGRGLLADAPTPPLGTYIGVAGDAEITRLVEESDGLFLLGAILSDTNFAVSQRKIDLRKTIHAFDRAVTLGYHTYADIPLAGLVDALLEGLPPSDRTTRGKEPHAYPTGLQADGEPIAPMDIARAVNDRVRAGQEPLLIAADMGDCLFTAMDMIDAGLMAPGYYAGMGFGVPAGIGAQCVSGGKRILTVVGDGAFQMTGWELGNCRRLGIDPIVILFNNASWEMLRTFQPESAFNDLDDWRFADMAAGMGGDGVRVRTRAELKAALDKAFATRGRFQLIEAMIPRGVLSDTLARLVQGQKRLHAAPRE
notes: as for B1
K0.5 [9]: 0.94 ± 0.27 mM
kcat [9]: 0.5 ± 0.083 s⁻¹
kcat/Km [9]: 583 ± 200 M⁻¹ s⁻¹
K0.5 [10]: 1.6 ± 0.1 mM
kcat [10]: 0.217 ± 0.005 s⁻¹
kcat/Km [10]: 137 ± 5 M⁻¹ s⁻¹
